Experimental data as given in patent US20130310313A1 (CHINA MEDICAL UNIVERSITY, published 2013).

B1: IRBP-VV-2 (SEQ ID NO:180) (peptide)
peptide: IVISVPTIG
notes: Homologue of IRBP-60-68 with several residues replaced; synthetic
B2: IRBP-CM (SEQ ID NO:184) (peptide)
peptide: LVVSPPRIG
notes: as for B1
B3: IRBP-AT (SEQ ID NO:182) (peptide)
peptide: IVVRNPTAG
notes: as for B1
B4: IRBP-SN (SEQ ID NO:181) (peptide)
peptide: IVTRVPVIG
notes: as for B1
B5: IRBP-ZE (SEQ ID NO:187) (peptide)
peptide: IVIRTPIIT
notes: as for B1
B6: IRBP-CP (SEQ ID NO:186) (peptide)
peptide: KVIRVPRIG
notes: as for B1
B7: IRBP-MT (SEQ ID NO:179) (peptide)
peptide: IVYQVPTIG
notes: as for B1
B8: IRBP-OS (SEQ ID NO:183) (peptide)
peptide: TVAKTPTIG
notes: as for B1
B9: IRBP-VV-1 (SEQ ID NO:185) (peptide)
peptide: IVSMVPKIG
notes: as for B1
B10: IRBP-LU (SEQ ID NO:188) (peptide)
peptide: VVTSVPHIT
notes: as for B1
B11: IRBP-MC (SEQ ID NO:21) (peptide)
peptide: IVARPPAIG
B12: IRBP-1-19 (SEQ ID NO:2) (peptide)
peptide: SRCQGKSSWPGLVGSTGAA
notes: synthetic
B13: IRBP-45-68 (SEQ ID NO:5) (peptide)
peptide: DFRCDRVRVWVTERGIVARPPTIG
notes: synthetic
B14: IRBP-34-52 (SEQ ID NO:4) (peptide)
peptide: VIIKVGSGATKDFRCDRVR
notes: synthetic
B15: IRBP-50-68 (SEQ ID NO:6) (peptide)
peptide: RVRVWVTERGIVARPPTIG
B16: IRBP-60-68 (SEQ ID NO:7) (peptide)
peptide: IVARPPTIG
notes: synthetic
B17: IRBP-1-68 polypeptide (SEQ ID NO:1) (peptide)
chain: SRCQGKSSWPQLVGSTGAAAKAVIERENPRVRAVIIKVGSGATKDFRCDRVRVWVTERGIVARPPTIG

What follows are binders tested against T1, insulin receptor on human lymphocyte cells (IM-9) (human, UniProt P06213 28-1382) (assay: whole cell receptor binding assay on IM-9 cells with 125I-insulin; EC50 of promoting 125I-insulin binding).
T1 construct: whole, on cells; Endogenous receptor of IM-9 cells; also called IR; insulin receptors
Procedure: (§1) After incubation, the cells were chilled, centrifuged at 2000 rpm for 10 min at 4° C., and the pellets were washed twice with an ice-cold wash buffer (10 mmol/L Tris and 150 mmol/L NaCl, pH 7.6). The pellet was counted by a gamma counter. The assays were performed at least three times for each polypeptide. […] The lower value of EC₅₀ represents a stronger effect on promoting the binding.
B1 showed an EC50 of 4.98 nM.
B2 showed an EC50 of 0.92 nM.
Work on B3 yielded an EC50 of 9.98 nM.
In the case of B4, the EC50 is reported as 9.79 nM.
Binder B5 has an EC50 of 4.94 nM.
B6 gave an EC50 of 0.84 nM.
Work on B7 yielded an EC50 of 0.77 nM.
Work on B8 yielded an EC50 of 9.93 nM.
With B9 the EC50 was 0.96 nM.
Work on B10 yielded an EC50 of 9.7 nM.
In the case of B11, the EC50 is reported as 0.86 nM.

Biological target: T1, insulin receptor on human lymphocyte …
Experiment: as above
Remark: another data set of the same source
B12 showed an EC50 of 15.3 nM.
For B13, the EC50 was > 25 nM.
For B14, the EC50 was > 25 nM.
Work on B15 yielded an EC50 of 0.73 nM.
Binder B16 has an EC50 of 0.77 nM.

What follows are binders tested against T1, insulin receptor on human lymphocyte … (assay: whole cell receptor binding assay on IM-9 cells with 125I-insulin; EC50 defined as the concentration promoting 50% of the 125I-insulin to bind).
Procedure: as §1
In the case of B17, the EC50 is reported as 4.15 nM.
